The record followed here is US20200164029A1 (ACCELERON PHARMA, published 2020).

The target in experiment [1] is T1, hENG(26-586) (R&D Systems, catalog #1097-EN) (human, UniProt P17813 26-586).
T1 construct: also called soluble human ENG extracellular domain
T1 sequence: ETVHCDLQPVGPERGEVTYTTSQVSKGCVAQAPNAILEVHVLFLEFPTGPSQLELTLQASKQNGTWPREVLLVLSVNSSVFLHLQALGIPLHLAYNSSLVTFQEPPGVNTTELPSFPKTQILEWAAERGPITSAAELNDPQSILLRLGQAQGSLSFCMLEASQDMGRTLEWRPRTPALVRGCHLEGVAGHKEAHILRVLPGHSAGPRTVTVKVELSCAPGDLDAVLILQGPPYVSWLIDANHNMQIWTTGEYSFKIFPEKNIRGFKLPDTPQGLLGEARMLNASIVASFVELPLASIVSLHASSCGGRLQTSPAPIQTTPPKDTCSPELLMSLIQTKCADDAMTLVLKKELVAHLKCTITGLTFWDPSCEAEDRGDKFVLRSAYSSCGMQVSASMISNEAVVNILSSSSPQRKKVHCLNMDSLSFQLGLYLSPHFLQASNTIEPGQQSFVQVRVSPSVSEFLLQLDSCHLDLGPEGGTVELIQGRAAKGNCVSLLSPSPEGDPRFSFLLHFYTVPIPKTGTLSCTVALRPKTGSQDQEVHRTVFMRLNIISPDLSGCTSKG
Kind of experiment: SPR competition in solution: 0-50 nM hENG(26-586) premixed with 10 nM BMP-9, binding of BMP-9 to captured ALK1-hFc read out. The source says: (§1) BMP-9 and BMP-10 are high-affinity ligands at the type I receptor ALK1 (activin receptor-like kinase 1). […] Similar results were obtained with BMP-10 (FIG. 21).

A further experiment has as its target T2, hENG(26-581)-hFc (human, UniProt P17813 26-581).
T2 construct: not shown: human IgG1 Fc domain
T2 sequence: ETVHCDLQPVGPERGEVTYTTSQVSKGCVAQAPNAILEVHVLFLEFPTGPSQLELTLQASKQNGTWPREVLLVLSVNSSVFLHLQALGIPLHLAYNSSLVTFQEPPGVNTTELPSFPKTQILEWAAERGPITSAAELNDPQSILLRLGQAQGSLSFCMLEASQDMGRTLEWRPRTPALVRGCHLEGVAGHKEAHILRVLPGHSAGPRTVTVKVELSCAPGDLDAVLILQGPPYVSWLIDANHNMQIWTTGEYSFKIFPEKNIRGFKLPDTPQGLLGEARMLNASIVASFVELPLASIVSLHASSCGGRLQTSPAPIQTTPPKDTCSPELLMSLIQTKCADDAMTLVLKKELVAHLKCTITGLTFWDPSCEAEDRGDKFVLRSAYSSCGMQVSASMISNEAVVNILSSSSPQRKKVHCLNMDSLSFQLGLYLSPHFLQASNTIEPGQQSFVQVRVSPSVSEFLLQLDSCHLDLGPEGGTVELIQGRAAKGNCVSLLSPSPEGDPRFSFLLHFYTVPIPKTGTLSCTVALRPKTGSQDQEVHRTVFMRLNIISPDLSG
Kind of experiment: SPR, captured hENG-hFc, ligand at 100 nM; ++++ = KD < 1 nM. A general note: In SPR one partner is held on a chip, and binding of the other changes the refractive index at the surface.

The target of another experiment is T3, hENG(26-329)-hFc (human, UniProt P17813 26-329).
T3 construct: not shown: human IgG1 Fc domain
T3 sequence: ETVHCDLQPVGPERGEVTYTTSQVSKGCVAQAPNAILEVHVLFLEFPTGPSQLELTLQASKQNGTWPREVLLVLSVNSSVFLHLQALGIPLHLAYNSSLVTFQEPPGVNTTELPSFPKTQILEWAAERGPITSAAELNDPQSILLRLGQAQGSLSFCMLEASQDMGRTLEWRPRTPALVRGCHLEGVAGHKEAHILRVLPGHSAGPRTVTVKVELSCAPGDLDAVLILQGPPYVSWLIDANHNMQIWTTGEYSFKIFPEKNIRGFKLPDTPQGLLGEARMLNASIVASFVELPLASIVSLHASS
Kind of experiment: SPR, captured hENG-hFc, soluble ligand.

The next experiment concerns the target T4, hENG(133-346)-hFc (human, UniProt P17813 133-346).
T4 construct: not shown: human IgG1 Fc domain
T4 sequence: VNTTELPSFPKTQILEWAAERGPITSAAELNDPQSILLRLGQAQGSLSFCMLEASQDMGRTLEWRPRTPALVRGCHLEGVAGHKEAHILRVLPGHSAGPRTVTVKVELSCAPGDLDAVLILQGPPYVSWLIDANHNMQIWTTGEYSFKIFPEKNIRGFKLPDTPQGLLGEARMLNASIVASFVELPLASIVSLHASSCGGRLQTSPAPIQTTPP
Kind of experiment: SPR, captured hENG-hFc, soluble ligand.

Experiment [2] deals with T1, hENG(26-586) (R&D Systems, catalog …). Kind of experiment: SPR competition in solution: 0-50 nM hENG(26-586) premixed with 10 nM BMP-10, binding of BMP-10 to captured ALK1-hFc read out.
Description: as §1

B1: human BMP-9 (ligand, UniProt Q9UK05 320-429, looked up)
chain: SAGAGSHCQKTSLRVNFEDIGWDSWIIAPKEYEAYECKGGCFFPLADDVTPTKHAIVQTLVHLKFPTKVGKACCVPTKLSPISVLYKDDMGVPTLKYHYEGMSVAECGCR
notes: also called hBMP-9
In the case of B1, the binding result was “binds” in experiment [1], “binds” with hENG(26-581)-hFc, “no binding (tested: 100 nM)” with hENG(26-329)-hFc and “no binding (tested: 100 nM)” with hENG(133-346)-hFc.

B2: human BMP-10 (ligand, UniProt O95393 317-424, looked up)
chain: NAKGNYCKRTPLYIDFKEIGWDSWIIAPPGYEAYECRGVCNYPLAEHLTPTKHAIIQALVHLKNSQKASKACCVPTKLEPISILYLDKGVVTYKFKYEGMAVSECGCR
notes: also called hBMP-10
For the molecule B2, the binding result with hENG(26-581)-hFc is listed as “binds”; with hENG(26-329)-hFc it was “no binding (tested: 100 nM)”; with hENG(133-346)-hFc, “no binding (tested: 100 nM)”; in experiment [2], “binds”.
